Test results published in patent publication US8299028B2, “Chimeric peptide antagonist for GPCR135 or GPCR142” (Janssen Pharmaceutica NV, priority 2007, dated 2012).

What was measured:
[1] = molecular target: T1, human LGR7 (Homo sapiens, UniProt Q9HBX9); assay: Agonist assay, stimulation of β-gal expression in SK-N-MC/CRE-β-gal cells; type: cell-based; parameters: expressed in transfected cells; host or cells: SK-N-MC/CRE-β-gal
T1 sequence (Q9HBX9 1-757): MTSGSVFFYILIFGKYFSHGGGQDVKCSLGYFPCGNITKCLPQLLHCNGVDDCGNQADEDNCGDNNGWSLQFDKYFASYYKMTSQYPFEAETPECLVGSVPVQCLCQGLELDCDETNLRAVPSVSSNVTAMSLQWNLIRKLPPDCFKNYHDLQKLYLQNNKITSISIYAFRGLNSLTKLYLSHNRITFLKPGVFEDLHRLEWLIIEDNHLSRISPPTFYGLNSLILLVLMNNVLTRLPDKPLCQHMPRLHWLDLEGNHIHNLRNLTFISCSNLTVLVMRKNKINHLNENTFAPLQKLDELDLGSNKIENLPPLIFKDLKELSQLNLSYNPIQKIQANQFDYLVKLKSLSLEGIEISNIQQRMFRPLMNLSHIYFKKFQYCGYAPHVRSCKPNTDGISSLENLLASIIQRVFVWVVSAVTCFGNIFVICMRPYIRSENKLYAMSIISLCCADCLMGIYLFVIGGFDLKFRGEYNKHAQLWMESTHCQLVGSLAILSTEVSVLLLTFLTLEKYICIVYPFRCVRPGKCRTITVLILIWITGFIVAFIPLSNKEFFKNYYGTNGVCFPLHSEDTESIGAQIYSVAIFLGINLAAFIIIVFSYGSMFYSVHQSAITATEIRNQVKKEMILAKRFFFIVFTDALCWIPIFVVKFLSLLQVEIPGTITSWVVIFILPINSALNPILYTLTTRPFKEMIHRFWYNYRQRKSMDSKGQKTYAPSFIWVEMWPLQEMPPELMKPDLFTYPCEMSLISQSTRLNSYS
Procedure: FIG. 1 provides a characterization of mutant relaxin-3 peptides as ligands for human GPCR135, GPCR142, and LGR7. The truncated peptides were tested for their GPCR135 and GPCR142 agonist activity using SK-N-MC/CRE-β-gal cells expressing either human GPCR135 (A) or GPCR142 (B). Agonists for GPCR135 or GPCR142 inhibit forskolin induced β-galactosidase (β-gal) expression. The LGR7 agonist activity of the truncated peptides was tested using SK-N-MC/CRE-β-gal cells expressing Gαs-linked human LGR7 (C). Human relaxin-3 was used as positive control in both cases. β-gal expression was measured by colorimetric assay using CPRG as the substrate and reading the absorbance at 570 nm.
All peptides were tested for their GPCR135, GPCR142, and LGR7 agonist activities in SK-N-MC/CRE cells expressing the relevant receptors as described by Liu et al., 2005b. […] An increase in cAMP concentration in these cells is associated with increased β-gal expression, which can be measured using Chlorophenol Red-β-D-Galactopyranoside (CRGP) as a substrate and reading the optical absorbance at 570 nm. […] The results were analyzed using GraphPad Prism 4.0 software. […] The agonism and antagonism of peptides for rat LGR7 was assayed using a cAMP luminescence assay. […] The cAMP in the cells was measured with a cAMP detection kit (DiscoveRx HitHunter, Cat. #90-0041) according to the manufacturer's protocol. […]

[2] = molecular target: human GPCR142 (Homo sapiens, UniProt Q8TDU9); assay: Radioligand binding assay, 125I-R3/I5 tracer, COS-7 cells expressing GPCR142; parameters: expressed in transfected cells; host or cells: COS-7
human GPCR142, sequence (Q8TDU9 whole entry, the tested form may be a part): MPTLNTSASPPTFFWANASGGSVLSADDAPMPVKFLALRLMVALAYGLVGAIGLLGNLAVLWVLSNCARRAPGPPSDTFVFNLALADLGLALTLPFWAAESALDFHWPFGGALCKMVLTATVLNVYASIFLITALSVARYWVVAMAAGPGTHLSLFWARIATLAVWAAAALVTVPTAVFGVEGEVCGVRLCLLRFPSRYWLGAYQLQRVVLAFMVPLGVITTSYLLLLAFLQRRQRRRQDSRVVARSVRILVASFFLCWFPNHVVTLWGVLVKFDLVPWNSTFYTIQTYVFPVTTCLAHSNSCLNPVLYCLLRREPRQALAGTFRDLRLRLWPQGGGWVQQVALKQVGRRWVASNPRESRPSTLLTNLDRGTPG
Text: COS-7 cells in 24-well tissue culture plates transiently expressing GPCR135, GPCR142 or LGR7 were used in radioligand binding assays as described by Liu et al., 2005a, J. Biol. Chem., 280:292-300. ^125I-Relaxin-3/INSL5 (^125I-R3/I5), a radiolabeled chimeric peptide with the human relaxin-3 B-chain and the human INSL5 A-chain (Liu et al., 2005b), was used at a final concentration of 50 pM as the tracer to characterize the binding properties of all truncated relaxin-3 peptides for GPCR135 and GPCR142. ^125I-relaxin-2 (PerkinElmer Biosciences, Boston) was used at a final concentration of 50 pM to characterize the binding properties of the truncated peptides for the relaxin receptor (LGR7). The results were analyzed by GraphPad Prism 4.0 software (Graphpad, San Diego). The IC50 values, which are the ligand concentrations that inhibited 50% of the maximum specific binding, were then calculated.

Substance: R3(BΔ23-27)R: Relaxin-3 mutant: B-chain SEQ ID NO:15 (Gly23-Trp27 deleted plus C-terminal Arg), relaxin-3 A-chain SEQ ID NO:13
- EC50 ([1]; human LGR7 agonist response, mean ± SEM, NA = no agonist activity observed): > 1 µM
- agonist activity at human LGR7 ([1]; stimulation of β-gal expression): no LGR7 agonist activity
- affinity of human GPCR142 [2]: high affinities
